Reference: US20230384326A1 (CANON MEDICAL SYSTEMS, published 2023)

Key:
mCRP (99) peptide [1] = molecular target: T1, mCRP (99) peptide (human); experiment: solid phase peptide ELISA
T1 peptide: EILFEVPEVTC
Procedure: (§1) Epitope analysis was performed by the following procedure. [0200] (a) Peptides were immobilized on a plate by standing at 50 ng/well (50 μL/well) for 16 hours at 4° C. […] (b) Solid phase peptides were washed twice with Dulbecco's PBS (D-PBS) (200 μL/well). […] (c) Blocking was performed by adding 200 μL of D-PBS containing 0.1% BSA and 0.05% NaN₃ to each well and leaving it at 4° C. overnight. […] (d) Each well was washed twice with the washing buffer. [0204] (e) The antibody was diluted to 1 μg/mL with the dilution buffer and the diluted solution was added to each well (50 μL/well) and left at 37° C. for 30 minutes. […] (f) Each well was washed four or more times with the washing buffer. […] (g) Anti-mouse IgG (γ-specific)-HRP, a labeled antibody, was added to each well (50 μL/well) and left at 37° C. for 30 minutes. [0207] (h) Each well was washed four or more times with the washing buffer. […] (i) A chromogenic reaction was started by adding a substrate solution (400 μg/mL) to each well (100 μL/well), and the reaction was allowed to proceed for 15 minutes at room temperature in the dark. [0209] (j) After 15 minutes, the reaction was stopped by addition of 1 mol/L sulfuric acid (100 μL/well), and absorbance (490 nm) was measured.
In the above (e), the same result was obtained even when the antibody concentration added to each well was changed to 5 μg/mL. […]

mCRP (151-180) peptide = molecular target: T2, mCRP (151-180) peptide (human); experiment: solid phase peptide ELISA (part 2)
T2 peptide: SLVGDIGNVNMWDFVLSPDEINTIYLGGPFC

mCRP (31-60) peptide = molecular target: T3, mCRP (31-60) peptide (human); experiment: solid phase peptide ELISA (part 2)
T3 peptide: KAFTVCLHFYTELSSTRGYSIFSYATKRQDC

mCRP (61-90) peptide = molecular target: T4, mCRP (61-90) peptide (human); experiment: solid phase peptide ELISA (part 2)
T4 peptide: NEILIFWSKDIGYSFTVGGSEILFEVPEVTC

mCRP (181-206) peptide = molecular target: T5, mCRP (181-206) peptide (human); experiment: solid phase peptide ELISA (part 2)
T5 peptide: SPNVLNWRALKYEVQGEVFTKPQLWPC

mCRP (121-150) peptide = molecular target: T6, mCRP (121-150) peptide (human); experiment: solid phase peptide ELISA (part 2)
T6 peptide: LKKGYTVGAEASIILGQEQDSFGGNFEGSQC

mCRP (149) peptide = molecular target: T7, mCRP (149) peptide (human); experiment: solid phase peptide ELISA, antibody 1 ug/mL
T7 peptide: ASIILGQEQDC
Procedure: as §1
(§2) In the above (e), the same result was obtained even when the antibody concentration added to each well was changed to 5 μg/mL. […] Accordingly, it is believed that there are not only one kind of epitope but also a plurality of kinds of epitopes of human denatured CRP-specific monoclonal antibodies.

mCRP (29) peptide = molecular target: T8, mCRP (29) peptide (human); experiment: solid phase peptide ELISA, antibody 1 ug/mL
T8 peptide: FPKESDTSYVC
Procedure: as §1, §2

mCRP (99) peptide [2] = molecular target: T1, mCRP (99) peptide; experiment: solid phase peptide ELISA, antibody 1 ug/mL
Procedure: as §1, §2

mCRP (109) peptide = molecular target: T9, mCRP (109) peptide (human); experiment: solid phase peptide ELISA, antibody 1 ug/mL
T9 peptide: VAPVHICTSWC
Procedure: as §1, §2

mCRP (89) peptide = molecular target: T10, mCRP (89) peptide (human); experiment: solid phase peptide ELISA, antibody 1 ug/mL
T10 peptide: IGYSFTVGGSC
Procedure: as §1, §2

mCRP (59) peptide = molecular target: T11, mCRP (59) peptide (human); experiment: solid phase peptide ELISA, antibody 1 ug/mL
T11 peptide: TELSSTRGYSC
Procedure: as §1, §2

mCRP (19) peptide = molecular target: T12, mCRP (19) peptide (human); experiment: solid phase peptide ELISA, antibody 1 ug/mL
T12 peptide: QTDMSRKAFVC
Procedure: as §1, §2

mCRP (129) peptide = molecular target: T13, mCRP (129) peptide (human); experiment: solid phase peptide ELISA, antibody 1 ug/mL
T13 peptide: VDGKPRVRKSC
Procedure: as §1, §2

mCRP (179) peptide = molecular target: T14, mCRP (179) peptide (human); experiment: solid phase peptide ELISA, antibody 1 ug/mL
T14 peptide: MWDFVLSPDEC
Procedure: as §1, §2

mCRP (189) peptide = molecular target: T15, mCRP (189) peptide (human); experiment: solid phase peptide ELISA, antibody 1 ug/mL
T15 peptide: INTIYLGGPFC
Procedure: as §1, §2

mCRP (69) peptide = molecular target: T16, mCRP (69) peptide (human); experiment: solid phase peptide ELISA, antibody 1 ug/mL
T16 peptide: IFSYATKRQDC
Procedure: as §1, §2

mCRP (199) peptide = molecular target: T17, mCRP (199) peptide (human); experiment: solid phase peptide ELISA, antibody 1 ug/mL
T17 peptide: SPNVLNWRALC
Procedure: as §1, §2

mCRP (39) peptide = molecular target: T18, mCRP (39) peptide (human); experiment: solid phase peptide ELISA, antibody 1 ug/mL
T18 peptide: SLKAPLTKPLC
Procedure: as §1, §2

mCRP (139) peptide = molecular target: T19, mCRP (139) peptide (human); experiment: solid phase peptide ELISA, antibody 1 ug/mL
T19 peptide: LKKGYTVGAEC
Procedure: as §1, §2

mCRP (49) peptide = molecular target: T20, mCRP (49) peptide (human); experiment: solid phase peptide ELISA, antibody 1 ug/mL
T20 peptide: KAFTVCLHFYC
Procedure: as §1, §2

mCRP (159) peptide = molecular target: T21, mCRP (159) peptide (human); experiment: solid phase peptide ELISA, antibody 1 ug/mL
T21 peptide: SFGGNFEGSQC
Procedure: as §1, §2

mCRP (119) peptide = molecular target: T22, mCRP (119) peptide (human); experiment: solid phase peptide ELISA, antibody 1 ug/mL
T22 peptide: ESASGIVEFWC
Procedure: as §1, §2

mCRP (169) peptide = molecular target: T23, mCRP (169) peptide (human); experiment: solid phase peptide ELISA, antibody 1 ug/mL
T23 peptide: SLVGDIGNVNC
Procedure: as §1, §2

mCRP (79) peptide = molecular target: T24, mCRP (79) peptide (human); experiment: solid phase peptide ELISA, antibody 1 ug/mL
T24 peptide: NEILIFWSKDC
Procedure: as §1, §2

mCRP (209) peptide = molecular target: T25, mCRP (209) peptide (human); experiment: solid phase peptide ELISA, antibody 1 ug/mL
T25 peptide: KYEVQGEVFTKPQLWPC
Procedure: as §1, §2

B1: human denatured CRP-specific antibody produced from hybridoma mCRP-18A (antibody, mouse IgG2a)
heavy: EVQLQQSGAEFVKPGTSVKLSCTASGFNIKDYYIHWVKQRTEQGLEWIGRIDPEDGETKYAPKFQGKATITADASSNTAYLQLSSLTSEDTAVYYCVSRMYYYGSQGLFDFWGQGTTLTVSSAKTTAPSVYPLAPVCGGTTGSSVTLGCLVKGYFPEPVTLTWNSGSLSSGVHTFPALLQSGLYTLSSSVTVTSNTWPSQTITCNVAHPASSTKVDKKIEPRVPITQNPCPPLKECPPCAAPDLLGGPSVFIFPPKIKDVLMISLSPMVTCVVVDVSEDDPDVQISWFVNNVEVHTAQTQTHREDYNSTLRVVSALPIQHQDWMSGKEFKCKVNNRALPSPIEKTISKPRGPVRAPQVYVLPPPAEEMTKKEFSLTCMITGFLPAEIAVDWTSNGRTEQNYKNTATVLDSDGSYFMYSKLRVQKSTWERGSLFACSVVHEGLHNHLTTKTISHSPGK
light: DIVMTQSPSSLTVTAGEKVTMGCKSSQSLLNSANQKNYLTWYRQKPGQPPKLLIYWASTRESGVPDRFTGSGSGTDFTLTISSVQAEDLAVYYCQNDYNYPLTCGAGTKLDLKRADAAPTVSIFPPSSEQLTSGGASVVCFLNNFYPKDINVKWKIDGSERQNGVLNSWTDQDSKDSTYSMSSTLTLTKDEYERHNSYTCEATHKTSTSPIVKSFNRNEC
notes: Mouse IgG2a, kappa; also called 18A antibody
mCRP (99) peptide [1]
  binding result: no binding

B2: human denatured CRP-specific antibody produced from hybridoma mCRP-12C (antibody, mouse IgG1, V domains shown)
VH: EVQLQQSGAELVKPGASVKLSCTASGFNIKDYYIHWVKQRTDQGLEWIGRIDPEDDETKYAPKFQGKATIITDTSSNTAYLHLSSLTSADTAVYYCASRIYYYDIKGLFDYWGQGTTLTVSS
VL: DIVMTQAPSSLTVTAGEKVTMTCKSSQSLLNSGNQKNYLTWSQQKPGQPPKLLIYWASTRESGVPDRFTGSGSGTDFTLTISSVQAEDLAVYYCQNDYNYPITFGAGTKLELKR
notes: Mouse IgG1, kappa; also called 12C antibody
mCRP (99) peptide [1]
  binding result: no binding

B3: human denatured CRP-specific antibody produced from hybridoma mCRP-3C (antibody, mouse IgG2b, V domains shown)
VH: QVQLQQSGAELVRPGASVKLSCKALDYTFTDYEMHWVKQTPVHGLEWIGAIHPGRGGTAYNQKFKGKATLTADKSSSTAYMELSSLTSEDSGVYYCTSYHGGYWGQGTTLTVSS
VL: DVVMTQTPLSLPVSLGDQASISCRSSQSLVHSNENTYLLWYLQKPGQSPKLLIYKVSNRFSGVPDRFSGSGSGTDFTLKISRVEAEDLGVYFCSQTTHVPWTFGGGTKLEIKR
notes: Mouse IgG2b, kappa; also called 3C antibody
mCRP (151-180) peptide
  Absorbance (490 nm): 0.108 A490
mCRP (31-60) peptide
  Absorbance (490 nm): 0.03 A490
mCRP (61-90) peptide
  Absorbance (490 nm): 1.98 A490
mCRP (181-206) peptide
  Absorbance (490 nm): 0.006 A490
mCRP (121-150) peptide
  Absorbance (490 nm): 0.017 A490
mCRP (149) peptide
  Absorbance (490 nm): 0.001 A490
mCRP (29) peptide
  Absorbance (490 nm): -0.001 A490
mCRP (99) peptide [2]
  Absorbance (490 nm): 1.58 A490
mCRP (109) peptide
  Absorbance (490 nm): -0.001 A490
mCRP (89) peptide
  Absorbance (490 nm): 0 A490
mCRP (59) peptide
  Absorbance (490 nm): 0.001 A490
mCRP (19) peptide
  Absorbance (490 nm): 0.004 A490
mCRP (129) peptide
  Absorbance (490 nm): 0.002 A490
mCRP (179) peptide
  Absorbance (490 nm): 0.003 A490
mCRP (189) peptide
  Absorbance (490 nm): 0.007 A490
mCRP (69) peptide
  Absorbance (490 nm): 0.002 A490
mCRP (199) peptide
  Absorbance (490 nm): 0.006 A490
mCRP (39) peptide
  Absorbance (490 nm): 0.001 A490
mCRP (139) peptide
  Absorbance (490 nm): 0.002 A490
mCRP (49) peptide
  Absorbance (490 nm): 0 A490
mCRP (159) peptide
  Absorbance (490 nm): 0.002 A490
mCRP (119) peptide
  Absorbance (490 nm): 0.005 A490
mCRP (169) peptide
  Absorbance (490 nm): 0.001 A490
mCRP (79) peptide
  Absorbance (490 nm): 0 A490
mCRP (209) peptide
  Absorbance (490 nm): 0 A490
